# Experimental data reported in IntAct's records for PubMed 20923837.
# Columns and labels:
# tbcd5_human TBC1D5 = tbcd5_human TBC1D5 (UniProt Q92609)
# vps35_mouse Vps35 = vps35_mouse Vps35 (UniProt Q9EQH3)
substance,measurement,setting,value
Vacuolar protein sorting-associated protein 29 (Mus musculus) (from UniProt Q9QZ88) L152E,effect of a mutation on the interaction,tbcd5_human TBC1D5,disrupting interaction strength
same,effect of a mutation on the interaction,vps35_mouse Vps35,with no effect
